Experimental data: patent US20090062190A1, “Transcriptional Regulation of Cytokines by LITAF and STAT (6)(B)” (priority 2005, published 2009)

Key:
THP-1 cells [1] = test: Western blot of cytokine protein levels in transfected THP-1 cells (FIG. 6d); format: cell-based, human; conditions: overexpression in THP-1 cells
Text: (§1) Since both LITAF and STAT6(B) were found in the nucleus (FIG. 5), it was further investigated whether they act separately or in concert in mediating activation of TNF-α. While studying the complex, a cytokine array was employed to look at effects on other cytokines (FIG. 6a-6c.). The assay was preformed as follows. Using an empty vector as a control (FIG. 6b1), DNA of LITAF (full length, FIG. 6b2), STAT6(B) (full length; FIG. 6b3) or both full length of LITAF+STAT6(B) (FIG. 6b4), respectively, was transfected or co-transfected into THP-1 cells. Conditioned medium from each treated cell type was then prepared and incubated with membranes containing an array of 44 human protein cytokine antibodies (FIG. 6a). Autoradiographs were scanned, and the density of each cytokine at the corresponding position was determined. […] The relative intensities of each cytokine were normalized to control spots on the same membrane. Major increases or decreases among cytokines are represented graphically in FIG. 6c. […] In order to confirm these findings at the protein level we selected the four most strongly affected cytokines, IL-1α, IL-10, MCP-2 and RANTES and, under the same experimental conditions, measured their protein levels by Western blots.

VEGF promoter = VEGF promoter activity / VEGF expression in transfected U2OS cells; format: cell-based, human; conditions: transient transfection into U2OS cells with pcVEGF or pEVEGF
Method: To determine that this activation occurred at the transcriptional level, VEGF promoter activity assays were performed. A full length VEGF sequence, with or without its enhancer element (−2040˜+1), named pcVEGF or pEVEGF, was cloned into pcDNA3 plasmid. The cloned DNA with LITAF and/or STAT6(B) DNAs were transiently co-transfected into U2OS cells as described in FIG. 11a.

THP-1 cells [2] = test: Human cytokine antibody array of conditioned medium from transfected THP-1 cells; format: cell-based; conditions: single transfection
Text: as §1

TNF-α promoter = TNF-α promoter luciferase assay in transfected U2OS cells; format: cell-based, human; conditions: transfection alone
Method: In order to characterize the functional importance of LITAF in the LITAF/STAT6(B) complex, the effect of the complex was examined, with and without silenced LITAF, on TNF-α promoter activity. U2OS cells containing the TNF-promoter linked to luciferase were transiently transfected with LITAF alone, STAT6(B) alone, or both DNAs as described. TNF-α promoter activity was analyzed via luciferase activity. […] The TNF-α concentrations in the supernatants of these transfected THP-1 cells was also measured. […] They further indicate that LITAF might play a leading role in cytokine regulation after the LITAF-STAT6(B) complex translocates to the nucleus in the cells.

MCP-1 promoter = test: Luciferase assay of MCP-1 promoter activity after transient transfection (FIG. 16); format: cell-based
Text: To show this hypothesis, monocyte chemoattractant protein-1 (MCP-1), an important component of the inflammatory process, is selected to determine whether its LPS-triggered transcriptional regulation parallels observations for TNF. Recent studies have shown that the MCP-1 promoter activity can be regulated by NF-KB, STAT1, CEB/P homologous protein (CHOP), heme oxygenase-1 (HO-1) or activated protein C (APC) (Kim, et al, Clin Exp Immunol, 140:450-460, 2005; Jaruga, et al., Am J Physiol Gastrointest Liver Physiol, 287:G471-479, 2004, Abraham, et al., J Neuroimmunol, 160:219-221, 2005; Kanakiriya, et al., Am J Physiol Renal Physiol, 284:F:546-554, 2003). However, the precise LPS signaling pathways leading to MCP-1 induction have not been fully identified. In Examples 1-3, above, the regulation of LPS-induced inflammatory cytokine expression was shown. […] Thus, CTCCC represents a specific sequence in cytokine promoters to which LITAF binds for activity. […] Thus, short peptides with amino acids designed and synthesized based on the potential binding domain of LITAF and STAT6(B) jointly enhance MCP-1 promoter activity.

[3] = test system: Porcine aortic endothelial (PAE) cells expressing VEGFR-2 spheroids; test: In vitro angiogenesis/tubulogenesis assay with supernatants of transfected THP-1 cells; format: cell-based; conditions: supernatant from transfected THP-1 cells, 2 days
Method: In Vitro Angiogenesis/Tubulogenesis assay of VEGF. To expand the observations that STAT6(B) is a potent stimulator of VEGF, and that the LITAF-STAT6(B) complex is inhibitory, culture supernatant fluids of LITAF-, STAT6(B)- or LITAF-STAT6(B)-transfected THP1 cells were tested in an in vitro angiogenesis/tubulogenesis assay. The assay was preformed as follows. Porcine aortic endothelial (PAE) cells expressing VEGFR-2 spheroids were generated as described in the art (Mayer and Rahimi, Ann. NY Acad. Sci, 995:200-207, 2003). A defined number of cells were suspended in DMEM containing 1% fetal bovine serum and 0-0.24% (w/v) carboxymethylcellulose (4000 centipoise) in non-adherent round-bottom 96-well plates under standard cell culture conditions. After 24 hours all cells formed one single spheroid per well (about 750 cells/spheroid). Spheroids were cultured for 2 days before using them in the in vitro angiogenesis assay in the following manner Spheroids containing about 750 cells were embedded in collagen gels. Eight volumes of collagen were mixed with 1 volume of 10×HEPES-buffered saline solution containing 10% 10×DMEM with phenol red. […]
It was determined whether VEGF, induced by STAT6(B), was active and capable of inducing angiogenesis and that the LITAF-STAT6(B) complex effect would inhibit this activity. […]

B1: STAT6(A): known gene STAT6 (GenBank), referred to as STAT6(A) in this study (protein, UniProt P42226 2-847, looked up)
Signal transducer and …: SLWGLVSKMPPEKVQRLYVDFPQHLRHLLGDWLESQPWEFLVGSDAFCCNLASALLSDTVQHLQASVGEQGEGSTILQHISTLESIYQRDPLKLVATFRQILQGEKKAVMEQFRHLPMPFHWKQEELKFKTGLRRLQHRVGEIHLLREALQKGAEAGQVSLHSLIETPANGTGPSEALAMLLQETTGELEAAKALVLKRIQIWKRQQQLAGNGAPFEESLAPLQERCESLVDIYSQLQQEVGAAGGELEPKTRASLTGRLDEVLRTLVTSCFLVEKQPPQVLKTQTKFQAGVRFLLGLRFLGAPAKPPLVRADMVTEKQARELSVPQGPGAGAESTGEIINNTVPLENSIPGNCCSALFKNLLLKKIKRCERKGTESVTEEKCAVLFSASFTLGPGKLPIQLQALSLPLVVIVHGNQDNNAKATILWDNAFSEMDRVPFVVAERVPWEKMCETLNLKFMAEVGTNRGLLPEHFLFLAQKIFNDNSLSMEAFQHRSVSWSQFNKEILLGRGFTFWQWFDGVLDLTKRCLRSYWSDRLIIGFISKQYVTSLLLNEPDGTFLLRFSDSEIGGITIAHVIRGQDGSPQIENIQPFSAKDLSIRSLGDRIRDLAQLKNLYPKKPKDEAFRSHYKPEQMGKDGRGYVPATIKMTVERDQPLPTPELQMPTMVPSYDLGMAPDSSMSMQLGPDMVPQVYPPHSHSIPPYQGLSPEESVNVLSAFQEPHLQMPPSLGQMSLPFDQPHPQGLLPCQPQEHAVSSPDPLLCSDVTMVEDSCLSQPVTAFPQGTWIGEDIFPPLLPPTEQDLTKLLLEGQGESGGGSLGAQPLLQPSHYGQSGISMSHMDLRANPSW
protein levels of IL-1α, IL-10, MCP-2 and RANTES by Western blot (THP-1 cells [1]): not altered

B2: STAT6(B): novel protein, Signal transducer and activator of transcription, SEQ ID NO: 2; full length DNA transfected (protein, listed as Homo sapiens)
chain: MARRNPSPPLQRLRDWGHHHCPCHPGPGWLSTDGEHPAILCQRPVHSLTGGPNPGSCSAQKSLSQEAQGGGFPEPLQAWAGTGCSDSFLSPTSSLLPAALLSLPVCHPDVTPYFIAVLLLLPHDPCPPFPPPFLPNPRALHGCLFLLTTAEQMGKDGRGYVPATIKMTVERGVWWYGQWVGQGLVVLICRKEGWHQPLVSHMYLLPSSRDQPLPTPELQMPTMVPSYDLGMAPDSSMSMQLGPDMVPQVYPPHSHSIPPYQGLSPEESVNVLSAFQEPHLQMPPSLGQMSLSFDQPHPQGLLPCQPQEHAVSSPDPLLCSDVTTVEDSCLSQPVTAFPQGTWIGEDIFPPLLPPTEQDLTKLLLEGQGESGGGSLGAQPLLQPSHYGQSGISMSHMDLRANPSW
protein levels of IL-1α, IL-10, MCP-2 and RANTES by Western blot (THP-1 cells [1]): modest induction of all except MCP-2 | VEGF gene expression / transcription (VEGF promoter): significantly upregulated | effect on GRO (cytokine array) (THP-1 cells [2]): up-regulated | effect on IL-1α (cytokine array) (THP-1 cells [2]): up-regulated | effect on IL-10 (cytokine array) (THP-1 cells [2]): up-regulated | effect on RANTES (cytokine array) (THP-1 cells [2]): up-regulated | TNF-α promoter luciferase activity (TNF-α promoter): did not substantially change | MCP-1 promoter activity / MCP-1 expression (MCP-1 promoter): significantly up-regulated | in vitro angiogenesis/tubulogenesis [3]: stimulated

B3: LITAF: LPS-induced TNF-α factor, SEQ ID NO: 1; full length DNA transfected for overexpression (protein, listed as Homo sapiens)
chain: MSVPGPYQAATGPSSAPSAPPSYEETVAVNSYYPTPPAPMPGPTTGLVTGPDGKGMNPPSYYTQPAPIPNNNPITVQTVYVQHPITFLDRPIQMCCPSCNKMIVSQLSYNAGALTWLSCGSLCLLGVHSGLLLHPLLRGCPAGRGPLLSQLQSSPGHLQAFVGLSQTQREPGAAGSPFHLSSSFTPGGGSALVVSPLQGAHLHVFFWGEYVAKLTNLQTPEIAAWSRA
protein levels of IL-1α, IL-10, MCP-2 and RANTES by Western blot (THP-1 cells [1]): not altered | VEGF gene expression / transcription (VEGF promoter): did not have any effect | effect on IL-1α (cytokine array) (THP-1 cells [2]): modestly up-regulated | effect on TNF-α (cytokine array) (THP-1 cells [2]): modestly up-regulated | MCP-1 promoter activity / MCP-1 expression (MCP-1 promoter): significantly up-regulated
